Source: patent US20260184766A1 (APPLIED BIOMEDICAL SCIENCE INSTITUTE, published 2026)

B1: R2G3 chimeric bovine-human IgG1 (ultralong CDR3) (antibody)
VH: QVQLRESGPSLVKPSQTLSLTCAASGFSLSDKAVGWVRRAPGKALEWLGSIDTGGSTGYNPGLKSRLSITKDNSKSQVSLSISSVTSEDSATYYCATVHQKTAEGDKTCPDGYEHTCGCIGGCGCKRSACIGALCCQASLGGWLSDGETYTYEFHVDTWGQGLVVTVSS
VL: QAVLNQPSSVSGSLGQRVSITCSGSSSNVGNGYVSWYQLIPGSAPRTLIYGDTSRASGVPDRFSGSRSGNTATLTISSLQAEDEADYFCASAEDSSSNAVFGSGTTLTVL
notes: also called 2G3 IgG; R2-G3 IgG
B2: R2F12 chimeric bovine-human IgG1 (ultralong CDR3) (antibody)
VH: QVQLRESGPSLVKPSQTLSLTCTVSGFSLSDKAVGWVRRAPGKALEWLGSIDTGGMTGYNPGLKSRLSITKDNSKSQVSLSVNSVTTEDSATYYCATVDQKTKNACPDDFDYRCSCIGGCGCARKGCVGPLCCRSDLGGYLTDSPAYIYEWYIDLWGQGLLVTVSS
VL: QAVLNQPSSVSGSLGQRVSITCSGSSSNVGNGYVSWYQLIPGSAPRTLIYGDTSRASGVPDRFSGSRSGNTATLTISSLQAEDEADYFCASAEDSSSNAVFGSGTTLTVL
notes: also called RR2F12
B3: R2C3 (R5C1) chimeric bovine-human IgG1 (ultralong CDR3) (antibody)
VH: QVQLRESGPSLVKPSQTLSLTCTASGFSLSDKPVGWVRQAPGKPLEWLGSIDTAENTGYNPGLKSRLSITKDNSKSQVSLSLSSVTTEDSATYYCATVHQKTRKEKSCPDGYLYSSNTGRGYDCGVWTCRRVGGEFCSATGDWTSPSEEDFYEFYVDTWGQGAPVTVSS
VL: QAVLNQPSSVSGSLGQRVSITCSGSSSNVGNGYVSWYQLIPGSAPRTLIYGDTSRASGVPDRFSGSRSGNTATLTISSLQAEDEADYFCASAEDSSSNAVFGSGTTLTVL
notes: also called SA-R2C3
B4: RBD F4 chimeric bovine-human IgG1 (antibody, V domains shown)
VH: QVQLRESGPSLVKPSQTLSLTCTVSGFSLSSNGVVWVRQAPGKALEWLGDICSTGGTSFNPALKSRLSIAKDNSKSQVSLSVRSVTPEDTATYYCARSRGYDCYANVDALDYVDAWGQGLLVTVSS
VL: QAVLNQPSSVSGSLGQRVSITCSGSSSNVGNGYVSWYQLIPGSAPRTLIYGDTSRASGVPDRFSGSRSGNTATLTISSLQAEDEADYFCASAEDSSSNAVFGSGTTLTVL
B5: RBD A2 chimeric bovine-human IgG1 (antibody, V domains shown)
VH: QVQLRESGPSLVKPLQILSLTCTVSGFSLSSNGVVWVRQAPGKALEWLGDICSTGGTSFNPALKSRLSIAKDNSKSQVSLSVRSVTPEDTATYYCARSRGYDCYANVDALDYVDAWGQGLLVTVSS
VL: QAVLNQPSSVSGSLGQRVSITCSGSSSNVGNGYVSWYQLIPGSAPRTLIYGDTSRASGVPDRFSGSRSGNTATLTISSLQAEDEADYFCASAEDSSSNAVFGSGTTLTVL
B6: RBD C6 chimeric bovine-human IgG1 (antibody, V domains shown)
VH: QVQLRESGPSLVKPSQTLSLTCTVSGFSLSSNGVVWVRQAPGRPLEWLGDICSNGGTSFNPALKSRLSIAKDNSESQVSLTVRSVTPEDTATYYCARSRGYDCYAYVYALDTVDAWGQGLLVTVSS
VL: QAVLNQPSSVSGSLGQRVSITCSGSSSNVGNGYVSWYQLIPGSAPRTLIYGDTSRASGVPDRFSGSRSGNTATLTISSLQAEDEADYFCASAEDSSSNAVFGSGTTLTVL
B7: R2B1 chimeric bovine-human IgG1 (antibody, V domains shown)
VH: QVQLRESGPSLVKPSQTLSLTCTVSGFSLSDNNVGWVRQAPGKALEWLGVMHNDGNKGYNPALKSRLSITKDSSKSQVSLSLSSVTSEDTATYYCTRDNARCDSWTYDSCDTWYRNSWHVDAWGQGLLVTVSS
VL: QAVLNQPSSVSGSLGQRVSITCSGSSSNVGNGYVSWYQLIPGSAPRTLIYGDTSRASGVPDRFSGSRSGNTATLTISSLQAEDEADYFCASAEDSSSNAVFGSGTTLTVL
B8: R2D6 chimeric bovine-human IgG1 (antibody, V domains shown)
VH: QVQLRESGPSLVKPSQTLSLTCTTSGFSLSSYAVGWVRQAPGKALEWVGDIDYVGNTDYNPALKSRLSITKDNSKSQVSLVVSSVTAEDAATYYCAKYSGAYAYAACNYYGWRCAWESYIDAWGQGLLVTVSS
VL: QAVLNQPSSVSGSLGQRVSITCSGSSSNVGNGYVSWYQLIPGSAPRTLIYGDTSRASGVPDRFSGSRSGNTATLTISSLQAEDEADYFCASAEDSSSNAVFGSGTTLTVL
B9: SR3A3 chimeric bovine-human IgG1 (ultralong CDR3) (antibody)
VH: QVQLRESGPSLVKPSQTLSLTCTISGFSLSSYAVLWVRQAPGKPLEWLGSIDTAENTGYNPGLKSRLSITKDNSKSQVSLSVSSVTTEDSATYYCATVHQKTRKEKNCPDGYIYSSNITSGFDCGVWICRRVGSAFCSRTGDYTSPTELDIYEFYVEGWGQGVPVTVSS
VL: QAVLNQPSSVSGSLGQRVSITCSGSSSNVGNGYVSWYQLIPGSAPRTLIYGDTSRASGVPDRFSGSRSGNTATLTISSLQAEDEADYFCASAEDSSSNAVFGSGTTLTVL

Experiments:
[1] = target: T1, SARS CoV-2 spike trimer protein from the parental Wuhan-Hu-1 isolate (recombinant stabilized extracellular … (SARS-CoV-2 (Wuhan-Hu-1))); assay: ELISA on coated recombinant stabilized spike protein, panel WT, OD 450
T1 construct: also called Spike protein

[2] = target: T1, SARS CoV-2 spike trimer protein from …; assay: ELISA on coated spike protein, anti-human Fc-HRP, OD450
[3] = target: T1, SARS CoV-2 spike trimer protein from …; assay: ELISA, spike coated, chimeric IgG1

Binder | EC50 (read off the curve) [1] [nM] | EC50 (read off the curve) [2] [nM] | EC50 [3] [nM]
B1 | ~0.4 | ~0.01 | –
B2 | ~0.3 | ~0.02 | 0.05
B3 | ~0.3 | – | 0.39
B4 | – | – | 0.03
B5 | – | – | 0.024
B6 | – | – | 0.03
B7 | – | – | 0.37
B8 | – | – | 0.41
B9 | – | – | 0.037
